{"source": "patent US20210069339A1", "about": "“CNP PRODRUGS” (ASCENDIS PHARMA GROWTH DISORDERS A/S, priority 2015, published 2021)", "key": {"[1]": {"biological_target": "T1, neutral endopeptidase (NEP) (Homo sapiens, UniProt P08473)", "T1 construct": "purchased Enzo Life Sciences GmbH, Lörrach, Germany", "T1 sequence (P08473 whole entry)": "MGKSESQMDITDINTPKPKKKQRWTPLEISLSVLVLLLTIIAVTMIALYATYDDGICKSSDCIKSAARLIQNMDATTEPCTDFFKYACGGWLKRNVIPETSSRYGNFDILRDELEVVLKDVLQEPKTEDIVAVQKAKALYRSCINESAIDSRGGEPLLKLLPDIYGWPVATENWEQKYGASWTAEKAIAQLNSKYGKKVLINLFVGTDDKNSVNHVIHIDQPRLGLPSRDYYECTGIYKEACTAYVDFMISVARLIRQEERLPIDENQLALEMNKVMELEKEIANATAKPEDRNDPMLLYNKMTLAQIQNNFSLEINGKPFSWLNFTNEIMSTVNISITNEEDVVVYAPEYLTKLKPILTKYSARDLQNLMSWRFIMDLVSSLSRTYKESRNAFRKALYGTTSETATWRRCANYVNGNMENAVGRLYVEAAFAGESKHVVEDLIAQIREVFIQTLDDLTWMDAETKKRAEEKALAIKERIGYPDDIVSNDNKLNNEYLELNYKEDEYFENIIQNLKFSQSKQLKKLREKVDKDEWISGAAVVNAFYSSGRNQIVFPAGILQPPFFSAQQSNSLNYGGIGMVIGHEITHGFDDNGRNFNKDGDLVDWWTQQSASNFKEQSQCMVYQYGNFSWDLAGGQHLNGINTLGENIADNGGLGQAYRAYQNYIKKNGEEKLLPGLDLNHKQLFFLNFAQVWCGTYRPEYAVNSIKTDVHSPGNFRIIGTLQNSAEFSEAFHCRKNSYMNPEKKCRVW", "experiment": "Digest of CNP variants by Neutral Endopeptidase in vitro", "type": "in vitro ADME", "conditions": "recombinant human neutral endopeptidase (NEP), pH 7.4, read-out: half life norm. (converted)", "text": "Samples were taken at different time intervals. […] The resulting reaction products were assigned using HPLC-MS."}, "[2]": {"conditions": "in vivo; cited from earlier work"}, "[3]": {"conditions": "animal studies; cited from earlier work"}, "[4]": {"conditions": "doses up to 15 μg/kg, healthy volunteers; cited from earlier work"}, "[5]": {"conditions": "after intravenous (iv) administration; cited from earlier work"}}, "note": "Where two headings read alike, the source gives them in different places. Bridges are numbered along the chain shown (N, C = ends). Where no end group is shown, it is not given here."}
{"compound": "CC[C@H](C)[C@@H]1NC(=O)[C@H](CCCNC(=N)N)NC(=O)[C@H](CC(=O)O)NC(=O)[C@H](CC(C)C)NC(=O)[C@H](CCCCN)NC(=O)[C@H](CC(C)C)NC(=O)CNC(=O)[C@H](Cc2ccccc2)NC(=O)[C@@H](NC(=O)CNC(=O)[C@H](CCCCN)NC(=O)[C@H](CO)NC(=O)[C@H](CC(C)C)NC(=O)CN)CSSC[C@@H](C(=O)O)NC(=O)CNC(=O)[C@H](CC(C)C)NC(=O)CNC(=O)[C@H](CO)NC(=O)[C@H](CCSC)NC(=O)[C@H](CO)NC(=O)CNC1=O", "note": "[CNP-22]", "values": [{"measurement": "half-life at 100 μg CNP equivalents/mL", "setting": "[1]", "result": 19.2, "unit": "min"}]}
{"compound": "BMN-111: modified recombinant human C-type Natriuretic Peptide where 17 amino acids have been added to form a 39 amino acid CNP pharmacological analog (PGQEHPNARKYKGANKKGLSKGCFGLKLDRIGSMSGLGC; disulfide 23-39; chains of the INN, looked up)", "values": [{"measurement": "half-life", "setting": "[2]", "result": 20, "unit": "min"}, {"measurement": "immunogenicity", "setting": "[3]", "result": "immunological response"}, {"measurement": "cardiovascular effect", "setting": "[4]", "result": "mild hypotension"}]}
{"compound": "CNP: C-type natriuretic peptide, as discussed in the background", "values": [{"measurement": "half-life", "setting": "[5]", "result": 2, "unit": "min"}]}
